The record followed here is PMC3411398, “Quaternary structures of recombinant, cellular, and serum forms of Thymidine Kinase 1 from dogs and humans” (BMC Biochemistry, 2012).

Values joined by “and” are separate entries in the source; they are usually repeats but may differ in a detail not shown here. Equal entries are not always repeated.

Data set [1] concerns the target canine serum TK1 (dog (endogenous in serum)). Put plainly: SEC; Superose 12, 0.01 M HEPES/KOH pH 7.6, 0.15 M NH4Cl, 0.02% NaN3; sera diluted 1:1, untreated or pre-treated with 20 mM DTE; fractions read by TK1 activity and immunoaffinity capture with western blot. (In gel filtration, larger molecules generally elute earlier.)
In data set [2] the target is cellular (native) canine TK1 from MDCK cells (dog (endogenous in MDCK)). Put plainly: SEC; Superose 12, 0.01 M HEPES/KOH pH 7.6, 0.15 M NH4Cl, 0.02% NaN3; crude cell extracts (MDCK, CEM), untreated or treated with DTE before chromatography; fractions read by TK1 activity and western blot.
Data set [3] deals with the molecule itself. Put plainly: SEC; Superose 12, 0.01 M HEPES/KOH pH 7.6, 0.15 M NH4Cl, 0.02% NaN3; sera diluted 1:1, untreated or pre-treated with 20 mM DTE; fractions read by TK1 activity and immunoaffinity capture with western blot.
Data set [4] concerns the molecule itself. As to the kind of experiment: SEC; Superose 12, 0.01 M HEPES/KOH pH 7.6, 0.15 M NH4Cl, 0.02% NaN3, no reducing agent in the buffer; 4 ug of freshly isolated recombinant TK1, untreated or pre-incubated with 20 mM DTE for 30 min on ice; fractions read by TK1 activity and western blot.
Data set [5] deals with the molecule itself. Put plainly: SEC; Superose 12, 0.01 M HEPES/KOH pH 7.6, 0.15 M NH4Cl, 0.02% NaN3; crude cell extracts (MDCK, CEM), untreated or treated with DTE before chromatography; fractions read by TK1 activity and western blot.

The term stoichiometry N denotes a count of units in the complex or per binding partner.

As for canine serum TK1 (enzyme), the stoichiometry N in data set [1] is 2 and 4.
For “cellular (native) canine TK1 from MDCK cells (enzyme)”, the stoichiometry N in data set [2] is 2 and 4.

B1: human serum TK1 (enzyme, human (endogenous in serum), UniProt P04183 1-234, looked up)
chain: MSCINLPTVLPGSPSKTRGQIQVILGPMFSGKSTELMRRVRRFQIAQYKCLVIKYAKDTRYSSSFCTHDRNTMEALPACLLRDVAQEALGVAVIGIDEGQFFPDIVEFCEAMANAGKTVIVAALDGTFQRKPFGAILNLVPLAESVVKLTAVCMECFREAAYTKRLGTEKEVEVIGGADKYHSVCRLCYFKKASGQPAGPDNKENCPVPGKPGEAVAARKLFAPQQILQCSPAN
notes: thymidine kinase 1, human, serum form; polypeptide of apparent MW 25 kDa on western blot; source: endogenous, pooled sera from human patients with acute lymphocytic leukemia
B1: the “stoichiometry N” value in data set [3] was 2 and 4.

B2: recombinant human thymidine kinase 1 (enzyme, UniProt P04183 1-234, looked up)
chain: B1 chain
notes: thymidine kinase 1, human, full-length cDNA; vector pEXP-5NT/TOPO; also called hTK1; human TK1
With B2, the “stoichiometry N” value in data set [4] was 2 and 4.

B3: cellular (native) human TK1 from CEM cells (enzyme, human (endogenous in CCRF-CEM), UniProt P04183 1-234, looked up)
chain: B1 chain
notes: thymidine kinase 1, human, endogenous in CCRF-CEM cells; 25 kDa band on western blot; also called cytosolic human TK1; source: endogenous, crude CCRF-CEM cell extract
As for B3, in data set [5], the “stoichiometry N” value is 2 and 4.
